# In paper PMC4173154 (Genes & Development, 2014):
# B1: recombinant Drosophila NLP, C-terminal 6-His tag (natural protein)
# chain: MAEESFYGVTLTAESDSVTWDVDEDYARGQKLVIKQILLGAEAKENEFNVVEVNTPKDSVQIPIAVLKAGETRAVNPDVEFYESKVTFKLIKGSGPVYIHGHNIKDDVEVVDMEEDDEEDDVAEDEEDEHPKKRAKIENAADGKNAKNNKKK
# Molecular target: native Drosophila core histones (Drosophila, UniProt P84051 1-124; P02283 1-123; P02299 1-136; P84040 1-103)
# Assay: co-sedimentation
binder,measurement,value
B1,binding result,binds
